According to paper PMC10299496, “Effect of Chemical Chaperones on the Stability of Proteins during Heat– or Freeze–Thaw Stress” (International Journal of Molecular Sciences, 2023):
Several values for one entry are separate records, joined by “and”; a condition that tells them apart may be missing. Equal values may be shown once.

How the values were obtained:
[1] = biological target: the molecule itself; test: AUC; sedimentation velocity, c(M) distributions; Phb 0.35 mg/mL pre-heated 40 min at 48 °C with or without HPCD, Tre or Bet, cooled 2 min in ice water; run at 25 °C, 48,000 rpm, 0.03 M HEPES pH 6.8, 0.15 M NaCl
[2] = biological target: the molecule itself; test: AUC; sedimentation velocity, c(M) distributions; GDH 0.2 mg/mL pre-heated 10 min at 50 °C with or without HPCD, Sorb, Tre or Bet, then cooled; run at 25 °C, 48,000 rpm, 0.1 M Na-phosphate pH 7.6, 0.01 M NaCl

| Protein | stoichiometry N [1] | stoichiometry N [2] |
| --- | --- | --- |
| Glycogen phosphorylase b from rabbit skeletal muscle (enzyme, UniProt P00489 1-843, looked up, glycogen phosphorylase b (muscle form), rabbit skeletal muscle; dimer of two identical subunits of 97.4 kDa; also called Phb; Phbfr (frozen-thawed Phb)) MSRPLSDQEKRKQISVRGLAGVENVTELKKNFNRHLHFTLVKDRNVATPRDYYFALAHTVRDHLVGRWIRTQQHYYEKDPKRIYYLSLEFYMGRTLQNTMVNLALENACDEATYQLGLDMEELEEIEEDAGLGNGGLGRLAACFLDSMATLGLAAYGYGIRYEFGIFNQKICGGWQMEEADDWLRYGNPWEKARPEFTLPVHFYGRVEHTSQGAKWVDTQVVLAMPYDTPVPGYRNNVVNTMRLWSAKAPNDFNLKDFNVGGYIQAVLDRNLAENISRVLYPNDNFFEGKELRLKQEYFVVAATLQDIIRRFKSSKFGCRDPVRTNFDAFPDKVAIQLNDTHPSLAIPELMRVLVDLERLDWDKAWEVTVKTCAYTNHTVLPEALERWPVHLLETLLPRHLQIIYEINQRFLNRVAAAFPGDVDRLRRMSLVEEGAVKRINMAHLCIAGSHAVNGVARIHSEILKKTIFKDFYELEPHKFQNKTNGITPRRWLVLCNPGLAEIIAERIGEEYISDLDQLRKLLSYVDDEAFIRDVAKVKQENKLKFAAYLEREYKVHINPNSLFDVQVKRIHEYKRQLLNCLHVITLYNRIKKEPNKFVVPRTVMIGGKAAPGYHMAKMIIKLITAIGDVVNHDPVVGDRLRVIFLENYRVSLAEKVIPAADLSEQISTAGTEASGTGNMKFMLNGALTIGTMDGANVEMAEEAGEENFFIFGMRVEDVDRLDQRGYNAQEYYDRIPELRQIIEQLSSGFFSPKQPDLFKDIVNMLMHHDRFKVFADYEEYVKCQERVSALYKNPREWTRMVIRNIATSGKFSSDRTIAQYAREIWGVEPSRQRLPAPDEKIP | 2 and 4 | – |
| Glutamate dehydrogenase from bovine liver (enzyme, glutamate dehydrogenase, bovine liver; homohexamer of six identical subunits of 56-57 kDa; also called GDH; GDHfr (frozen-thawed GDH)) not shown | – | 6 and 2 |
